# Article PMC3420887
# pKd: −log10 of the molar value.
# Legend:
# [1] = molecular target: T1, 6HisPrpR (PrpRMt) (Mycobacterium tuberculosis H37Rv) (UniProt O06581); experiment: SPR; settings: 50 mM Tris-HCl pH 7.5, 50 mM KCl, 10 mM MgCl2, 10% glycerol, 0.5 mM EDTA; […], SA chip)
# T1 sequence: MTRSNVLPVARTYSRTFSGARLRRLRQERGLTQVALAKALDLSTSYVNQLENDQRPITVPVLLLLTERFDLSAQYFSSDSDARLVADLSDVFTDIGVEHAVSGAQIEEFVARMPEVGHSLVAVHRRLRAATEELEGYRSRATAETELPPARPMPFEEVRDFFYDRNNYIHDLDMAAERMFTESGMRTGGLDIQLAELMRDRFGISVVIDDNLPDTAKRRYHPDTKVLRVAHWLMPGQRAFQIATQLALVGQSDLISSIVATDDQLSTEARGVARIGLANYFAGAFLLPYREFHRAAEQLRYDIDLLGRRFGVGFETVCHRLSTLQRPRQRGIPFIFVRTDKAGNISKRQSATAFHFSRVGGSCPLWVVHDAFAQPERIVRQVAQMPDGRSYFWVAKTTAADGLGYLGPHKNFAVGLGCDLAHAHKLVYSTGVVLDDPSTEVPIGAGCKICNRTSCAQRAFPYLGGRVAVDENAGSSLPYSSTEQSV
# 6HisRamB [2] = molecular target: T2, 6HisRamB (UniProt P9WMI1); experiment: SPR; settings: 50 mM Tris-HCl pH 7.5, 50 mM KCl, 10 mM MgCl2, 10% glycerol, 0.5 mM EDTA; […], SA chip)
# T2 sequence: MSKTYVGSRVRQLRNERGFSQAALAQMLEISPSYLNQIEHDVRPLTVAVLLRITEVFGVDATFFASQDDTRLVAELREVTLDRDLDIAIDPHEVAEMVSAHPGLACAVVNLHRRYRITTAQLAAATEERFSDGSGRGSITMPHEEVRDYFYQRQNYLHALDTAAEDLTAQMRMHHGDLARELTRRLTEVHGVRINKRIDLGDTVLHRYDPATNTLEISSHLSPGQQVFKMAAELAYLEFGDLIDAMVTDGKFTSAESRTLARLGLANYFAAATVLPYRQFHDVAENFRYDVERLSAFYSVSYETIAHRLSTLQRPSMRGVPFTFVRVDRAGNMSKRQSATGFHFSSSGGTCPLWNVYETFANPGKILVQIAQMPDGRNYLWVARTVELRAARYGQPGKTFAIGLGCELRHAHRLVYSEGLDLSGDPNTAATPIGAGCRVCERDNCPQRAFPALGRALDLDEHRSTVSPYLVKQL
# [3] = molecular target: T1, 6HisPrpR (PrpRMt) (Mycobacterium tuberculosis H37Rv); experiment: EMSA; settings: 50 mM Tris-HCl pH 7.5, 50 mM KCl, 10 mM MgCl2, 10% glycerol, 0.5 mM EDTA; […], SA chip)
# [4] = tested on: 6HisPrpR (PrpRMt) (Mycobacterium tuberculosis H37Rv); experiment: SPR; settings: 50 mM Tris-HCl pH 7.5, 50 mM KCl, 10 mM MgCl2, 10% glycerol, 0.5 mM EDTA; 25 C, 30 min (EMSA, footprinting); same buffer for SPR (BIAcore T3000, SA chip)
# 6HisRamB [5] = experiment: SPR; settings: 50 mM Tris-HCl pH 7.5, 50 mM KCl, 10 mM MgCl2, 10% glycerol, 0.5 mM EDTA; […], SA chip)
Substance,pKd [1],pKd (6HisRamB [2]),binding [3],pKd [4],pKd (6HisRamB [5])
GGCGGTCGAACACGTCGGGGTGACCGTCGGGCACGGGCATCAATTTTTTGTCGAGGCTCACGGCGTTCTCCCCATTTCCTCCTCGCGTGTACCTCAGGCTCACCCTTGAGTCCCGGTGCGAATCATGCCAACGCCGTGGCGGAAACACCAATCGCAGCACGCTTGCTAACTCTGCGAATGGCGTCTTCACAACACCCGGTACGCTCGGTTGGGTGTCCAAGACCTACGTCGGCTCGCGGGTCCGCCAACTGCCC (double strand) [pramB],7.49,6.48,binds,–,–
GGGTGCCTCCGATCCGAGCTCGGACTCGGCAAGTACCGCCACTTTCATGACCGCGCGAGGTGGTGCGTCGGGAGCGCTACTGGTGTTCGTGTTCGCTGACGACATGTAGCGGGCAGCTCCTCTTCCGGGCGGTTCGTTTGCAAACGATACGCATGCTGTGTGTAGATTTCCCACCTCCCGACAGCCGAGACGACGACATGTGCTGGAGTTATTGCCTTCGACTTGACGGTTGATCGTTAGCACC (double strand) [pkstR],7.60,–,binds,–,–
pkstR,–,–,–,7.60,–
pramB,–,–,–,7.49,6.48
GGTGCTCCGCGCTCTTCGGGGTGCCGACGACAGACATAGACAACTCCTTAACGGTCTTTCATTGCCGAAAACGCTGACGCCCTACCGTCGTCCAGGCGGTGTCAACGGCGCAGCTTCACTGGTGTGCTAACTCGACCATGGCACAGCGTGTCAACGCTGGTCCACCCATTTCACTTGCGAATTTCGGCAACGGCCTGCGGACTTTTTGCAAATTTTGCGAAGTCGCCCAAAAACTGAACCGTTTCAGAAGCTACCCGCCAGTAACGACAAATCCGCAGGTAAACCCCC (double strand) [picl1],–,–,binds,–,–
